Data as given in patent publication US20110256122A1 (published 2011).

Target: T1, recombinant human TNF R1/TNFRSF1A/Fc chimera (R+D Systems) (human, UniProt P19438 30-211)
T1 construct: Bought chimera; also called TNF-αR1; TNFR1 Fc; Fc part of the bought chimera not given
T1 sequence (looked up): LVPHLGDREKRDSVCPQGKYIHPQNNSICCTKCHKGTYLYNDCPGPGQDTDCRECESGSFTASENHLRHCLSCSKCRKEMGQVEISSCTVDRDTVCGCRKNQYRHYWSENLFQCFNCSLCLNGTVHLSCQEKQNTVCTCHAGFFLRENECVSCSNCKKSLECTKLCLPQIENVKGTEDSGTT
Experiment: sandwich ELISA, TNF R1 Fc chimera coated on the plate, anti-human IgG F(ab)2 then anti-goat/sheep-HRP detection

binding result: binds
B1: Dom 1h-131-206 (other)
chain: EVQLLESGGGLVQPGGSLRLSCAASGFTFAHETMVWVRQAPGKGLEWVSHIPPDGQDPFYADSVKGRFTISRDNSKNTLYLQMNSLRAEDTAVYHCALLPKRGPWFDYWGQGTLVTVSS
notes: Immunoglobulin single variable domain (dAb) with specificity for TNF-αR1; also called α-TNF-αR1 dAb; anti TNF alpha R1 dAb
